Measured values reported in patent EP4796681A2 (Daiichi Sankyo Co., Ltd., dated 2026).

B1: α-chymotrypsin-binding peptide No. 6 (SPINK2 mutant) (designed binder)
chain: DPQFGLFSKYRTPNCRRWLLPWCTYKYKPVCGSDMSTYANECTLCMKIREGGHNIKIIRNGPC
notes: Expressed in E. coli Origami B (DE3) as thioredoxin/His fusion, thioredoxin tag cleaved by thrombin; mainly monomer; also called clone 6; not shown: vector-derived N-terminal residues left after thrombin cleavage of the pET 32a (varied) fusion, including the S-tag used
B2: α-chymotrypsin-binding peptide No. 2 (SPINK2 mutant) (designed binder)
chain: DPQFGLFSKYRTPNCMRHRRHFCTMVYKPVCGSDMSTYANECTLCMKIREGGHNIKIIRNGPC
notes: Expressed in E. coli Origami B (DE3) as thioredoxin/His fusion, thioredoxin tag cleaved by thrombin; mainly monomer; also called clone 2; not shown: vector-derived N-terminal residues left after thrombin cleavage of the pET 32a (varied) fusion, including the S-tag used

How the values were obtained:
[1] = target: T1, Chymotrypsin (Worthington Biochemical Corp.) (Bos taurus (Bovine), UniProt P00766 1-13; P00766 16-146; P00766 149-245); assay: ELISA, chymotrypsin coated on plate, detection by HRP-conjugated S-Tag antibody
[2] = target: T1, Chymotrypsin (Worthington Biochemical …); assay: cell-based or functional assay

Row | Binder | EC50 [1] | IC50 of chymotrypsin inhibitory activity (Pierce Quantitative Protease Assay Kit) [2]
1 | B1 | 17.8 nM | 374 nM
2 | B2 | 18.3 nM | 815 nM
